According to publication PMC9368931, “Involvement of a Cluster of Basic Amino Acids in Phosphorylation-Dependent Functional Repression of the Ceramide Transport Protein CERT” (International Journal of Molecular Sciences, 2022):
Values joined by “and” are separate entries in the source; they are usually repeats but may differ in a detail not shown here. Identical values can stand only once.

B1: Recombinant human CERT S132A/13A purified from Sf21 cells (natural protein, UniProt Q9Y5P4-2 1-598, looked up)
chain: MSDNQSWNSSGSEEDPETESGPPVERCGVLSKWTNYIHGWQDRWVVLKNNALSYYKSEDETEYGCRGSICLSKAVITPHDFDECRFDISVNDSVWYLRAQDPDHRQQWIDAIEQHKTESGYGSESSLRRHGAMVSLVSGASGYSATSTSSFKKGHSLREKLAEMETFRDILCRQVDTLQKYFDACADAVSKDELQRDKVVEDDEDDFPTTRSDGDFLHSTNGNKEKLFPHVTPKGINGIDFKGEAITFKATTAGILATLSHCIELMVAAEDSWQAALDAETEAAAATEEAYANAMTELAAASHFGGPDYEEGPNSLINEEEFFDAVEAALDRQDKIEEQSQSEKVRLHWPTSLPSGDAFSSVGTHRFVQKVEEMVQNHMTYSLQDVGGDANWQLVVEEGEMKVYRREVEENGIVLDPLKATHAVKGVTGHEVCNYFWNVDVRNDWETTIENFHVVETLADNAIIIYQTHKRVWPASQRDVLYLSVIRKIPALTENDPETWIVCNFSVDHDSAPLNNRCVRAKINVAMICQTLVSPPEGNQEISRDNILCKITYVANVNPGGWAPASVLRAVAKREYPKFLKRFTSYVQEKTAGKPILF
notes: Ceramide transport protein CERT (GPBPΔ26), human, printed length 598 amino acids; The template plasmid is named pBS/nHAcFL-CERT, which may mean a further C-terminal FLAG tag; also called S132/13A; not shown: HA, N-terminal, kept
B2: Recombinant human CERT S132A purified from Sf21 cells (natural protein, UniProt Q9Y5P4-2 1-598, looked up)
chain: MSDNQSWNSSGSEEDPETESGPPVERCGVLSKWTNYIHGWQDRWVVLKNNALSYYKSEDETEYGCRGSICLSKAVITPHDFDECRFDISVNDSVWYLRAQDPDHRQQWIDAIEQHKTESGYGSESSLRRHGAMVSLVSGASGYSATSTSSFKKGHSLREKLAEMETFRDILCRQVDTLQKYFDACADAVSKDELQRDKVVEDDEDDFPTTRSDGDFLHSTNGNKEKLFPHVTPKGINGIDFKGEAITFKATTAGILATLSHCIELMVKREDSWQKRLDKETEKKRRTEEAYKNAMTELKKKSHFGGPDYEEGPNSLINEEEFFDAVEAALDRQDKIEEQSQSEKVRLHWPTSLPSGDAFSSVGTHRFVQKVEEMVQNHMTYSLQDVGGDANWQLVVEEGEMKVYRREVEENGIVLDPLKATHAVKGVTGHEVCNYFWNVDVRNDWETTIENFHVVETLADNAIIIYQTHKRVWPASQRDVLYLSVIRKIPALTENDPETWIVCNFSVDHDSAPLNNRCVRAKINVAMICQTLVSPPEGNQEISRDNILCKITYVANVNPGGWAPASVLRAVAKREYPKFLKRFTSYVQEKTAGKPILF
notes: Ceramide transport protein CERT (GPBPΔ26), human, printed length 598 amino acids; The template plasmid is named pBS/nHAcFL-CERT, which may mean a further C-terminal FLAG tag; Mainly a homo-trimer by cross-linking and blue native PAGE; not shown: HA, N-terminal, kept

Legend:
[1] = biological target: the molecule itself; experiment: cross-linking; purified CERT (10.8 ng in 30 μL of 50 mM HEPES-NaOH pH 7.4) with EGS (0.1-1.6 mM) on ice for 2 h; SDS-PAGE (6%) and anti-HA western blot
[2] = biological target: the molecule itself; experiment: native gel or EMSA; blue native PAGE of purified CERT (10 ng), 1% digitonin, 0.25% CBB G-250, 4-16% Bis-Tris gel; anti-HA western blot

Protein	stoichiometry N [1]	stoichiometry N [2]
B1	2 and 3	
B2		3
